Measurements taken from article PMC7611124.

B1: Probe C (rs28416813 C allele, IFNL3 5'UTR) (dsDNA)
DNA 1: CCCCTGCCCTCAGTGGGCAGCCTCTGCATTCCCTCAGCTCCCTTTCTCTCTGTGA
DNA 2: TCACAGAGAGAAAGGGAGCTGAGGGAATGCAGAGGCTGCCCACTGAGGGCAGGGG
modifications: BrdU (written T) at positions 5 and 34 of strand 1
B2: C-oligo NF-kB (consensus cold competitor) (dsDNA)
DNA 1: CCGCTGGGACTTTCCAGGA
DNA 2: TCCTGGAAAGTCCCAGCGG

Columns and labels:
NF-kB p50 [1] = target: T1, NF-kB p50 (UniProt P19838 1-433); assay: EMSA
NF-kB p50 [2] = target: T1, NF-kB p50; assay: competition

T1 sequence (P19838 1-433): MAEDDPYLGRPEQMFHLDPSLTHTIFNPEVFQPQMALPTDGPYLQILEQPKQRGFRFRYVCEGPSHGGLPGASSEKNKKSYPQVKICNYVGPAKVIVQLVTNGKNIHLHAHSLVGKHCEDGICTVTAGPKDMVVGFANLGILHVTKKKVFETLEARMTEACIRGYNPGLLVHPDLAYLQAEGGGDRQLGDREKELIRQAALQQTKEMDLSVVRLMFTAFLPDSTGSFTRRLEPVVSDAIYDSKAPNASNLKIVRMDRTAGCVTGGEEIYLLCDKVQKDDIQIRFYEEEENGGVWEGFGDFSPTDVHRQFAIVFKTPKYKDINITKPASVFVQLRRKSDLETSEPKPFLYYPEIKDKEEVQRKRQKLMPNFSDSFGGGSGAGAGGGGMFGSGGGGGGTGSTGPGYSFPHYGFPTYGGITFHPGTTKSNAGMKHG

Binder | binding result (NF-kB p50 [1]) | binding result (NF-kB p50 [2])
B1 | binds | –
B2 | – | binds
